Results: the Human Domainome abundance scans (Beltran et al. 2025)
± gives the uncertainty stated by the source.

B1: Androgen receptor, residues 557 to 632; numbered along this chain, P10275 (parent)
chain: QKTCLICGDEASGCHYGALTCGSCKVFFKRAAEGKQKYLCASRNDCTIDKFRRKNCPSCRLRKCYEAGMTLGARKL
B2: FERM and PDZ domain-containing protein 4, residues 75 to 154; numbered along this chain, Q14CM0 (parent)
chain: APRKVEMRRDPVLGFGFVAGSEKPVVVRSVTPGGPSEGKLIPGDQIVMINDEPVSAAPRERVIDLVRSCKESILLTVIQP

Variants of: B1
Assay: abundance fitness (aPCA) (normalised: wild type 0, dead -1); higher = more abundant; growth selection in yeast, the domain comes from the species named
Conditions: Homo sapiens

Abundance fitness: each site, then its substitutions
P57: C 0.088 ± 0.062, R -0.1 ± 0.057, Q -0.095 ± 0.078, V -0.037 ± 0.072, T -0.111 ± 0.079, K -0.043 ± 0.11, L -0.075 ± 0.063, I -0.167 ± 0.087, H 0.02 ± 0.07, F -0.024 ± 0.069, M -0.09 ± 0.1, D 0.1 ± 0.069, W 0 ± 0.13, Y -0.03 ± 0.051, A -0.011 ± 0.06, E 0.044 ± 0.11
T70: I -0.344 ± 0.29
G68: D -0.581 ± 0.47
R74: F -0.165 ± 0.15, L -0.18 ± 0.089, A -0.119 ± 0.068, N -0.044 ± 0.1, P 0.13 ± 0.1, G 0.05 ± 0.05, I -0.317 ± 0.13, H -0.036 ± 0.12, V -0.063 ± 0.068, C 0.06 ± 0.082, K -0.263 ± 0.27, S -0.032 ± 0.059, T 0.088 ± 0.092, Q 0.023 ± 0.1, W -0.19 ± 0.081, E 0.066 ± 0.1, M -0.056 ± 0.1
N55: V -0.151 ± 0.086, R -0.06 ± 0.068, Y -0.067 ± 0.063, T -0.012 ± 0.065, W -0.421 ± 0.28
L71: H -0.164 ± 0.084, F 0.103 ± 0.073, R -0.25 ± 0.066, G -0.128 ± 0.097, D -0.185 ± 0.15, E -0.114 ± 0.15, Y -0.043 ± 0.065, A -0.142 ± 0.095, I -0.021 ± 0.068, N -0.129 ± 0.072, T 0.073 ± 0.059, Q -0.043 ± 0.1, M 0.115 ± 0.078, P -0.15 ± 0.075, W -0.151 ± 0.11, V -0.085 ± 0.064, K 0.041 ± 0.1
L76: S -0.084 ± 0.086
S58: T -0.229 ± 0.068, V -0.16 ± 0.085, A -0.035 ± 0.068, Q -0.134 ± 0.083, R -0.09 ± 0.059, I -0.577 ± 0.098, Y -0.202 ± 0.064, E 0.133 ± 0.12, K -0.125 ± 0.097, H -0.112 ± 0.061, G 0.059 ± 0.071, N -0.189 ± 0.062, W -0.458 ± 0.16, C 0.075 ± 0.081, D -0.029 ± 0.074, P 0.013 ± 0.062, L -0.251 ± 0.059
C56: F -0.938 ± 0.22, G -1.05 ± 0.29, A -0.533 ± 0.18, T -0.562 ± 0.16, S -0.776 ± 0.12, P -0.812 ± 0.22, I -0.782 ± 0.22, H -0.804 ± 0.28, N -0.968 ± 0.24, K -0.848 ± 0.37, R -1.02 ± 0.21, L -0.498 ± 0.12, D -0.663 ± 0.22, W -0.964 ± 0.47, V -1.15 ± 0.31, M -0.662 ± 0.24, Q -1.01 ± 0.32
Y65: M -0.093 ± 0.09, F -0.056 ± 0.1, T -0.276 ± 0.1, K -0.178 ± 0.11, A -0.158 ± 0.085, H -0.1 ± 0.18, L -0.081 ± 0.073, R -0.117 ± 0.049, I -0.081 ± 0.24, G -0.218 ± 0.064, V 0.02 ± 0.059, N -0.062 ± 0.12, Q -0.037 ± 0.14, C 0.036 ± 0.11, S -0.208 ± 0.075, D -0.17 ± 0.17, E -0.092 ± 0.09, W -0.044 ± 0.11
A73: Y -0.166 ± 0.22, F -0.326 ± 0.12, Q -0.138 ± 0.1, T -0.205 ± 0.27, I -0.101 ± 0.14, S 0 ± 0.084, M -0.18 ± 0.12, D -0.026 ± 0.07, G -0.06 ± 0.06, V -0.054 ± 0.067, L -0.176 ± 0.073, W -0.203 ± 0.071, E 0.013 ± 0.068, P -0.44 ± 0.15, N -0.047 ± 0.17, K -0.2 ± 0.12, C -0.297 ± 0.12, R 0.008 ± 0.059
C64: G -0.606 ± 0.11, T -0.553 ± 0.2, R -1.06 ± 0.32, M -0.125 ± 0.12, V -0.879 ± 0.27, N -0.505 ± 0.45, F -0.745 ± 0.48, L -0.592 ± 0.16, A -0.306 ± 0.096, K -0.805 ± 0.29
K63: M -0.133 ± 0.1, V -0.142 ± 0.066, P -0.949 ± 0.23, H -0.423 ± 0.1, S -0.227 ± 0.07, G -0.4 ± 0.16, F -0.347 ± 0.12, C -0.143 ± 0.087, T -0.033 ± 0.068, D -0.283 ± 0.15, L -0.111 ± 0.061, Y -0.704 ± 0.2, I -0.146 ± 0.095, N -0.127 ± 0.1, A -0.141 ± 0.084, Q -0.084 ± 0.11, W -0.482 ± 0.19, E 0.009 ± 0.19, R -0.079 ± 0.071
G72: Q 0.089 ± 0.13, V -0.062 ± 0.075, S -0.092 ± 0.1, D 0.098 ± 0.11, E 0.126 ± 0.088, C -0.075 ± 0.13, T -0.056 ± 0.12, Y -0.074 ± 0.13, K -0.134 ± 0.14, F 0.06 ± 0.11, L -0.062 ± 0.068, R -0.009 ± 0.069, A -0.011 ± 0.075, W -0.076 ± 0.12, H -0.046 ± 0.15, N -0.136 ± 0.13

Variants of: B2
Assay: as above
Conditions: Homo sapiens

Abundance fitness of substitutions, site by site:
D10: W -0.422 ± 0.041, T -0.38 ± 0.043, N -0.071 ± 0.044, Q -0.32 ± 0.046, H -0.12 ± 0.057, Y -0.521 ± 0.058, I -0.364 ± 0.067, F -0.535 ± 0.062, S -0.099 ± 0.032, M -0.207 ± 0.048, R -0.455 ± 0.031, C -0.138 ± 0.04, L -0.369 ± 0.034, G -0.591 ± 0.032, E -0.27 ± 0.037, V -0.214 ± 0.03, K -0.42 ± 0.063
A1: M -0.227 ± 0.084, Y -0.14 ± 0.099, T -0.278 ± 0.045, G -0.157 ± 0.024, I 0.122 ± 0.49, Q -0.704 ± 0.2, S -0.207 ± 0.045, W -0.569 ± 0.096, F -0.199 ± 0.17, V -0.207 ± 0.028, E -0.329 ± 0.037, C 0.003 ± 0.064, P -0.734 ± 0.16, D -0.046 ± 0.05
R8: G -0.052 ± 0.027, Q 0.018 ± 0.043, Y -0.059 ± 0.055, H -0.058 ± 0.052, F 0.013 ± 0.043, C -0.12 ± 0.044, I 0.006 ± 0.046, V -0.038 ± 0.029, N -0.09 ± 0.062, E 0.034 ± 0.038, P -0.116 ± 0.048, S -0.024 ± 0.032, W -0.043 ± 0.033, M -0.014 ± 0.042, L -0.011 ± 0.028, A -0.009 ± 0.032, D 0.029 ± 0.042
R9: Q -0.3 ± 0.035, M -0.149 ± 0.032, Y -0.089 ± 0.064, P -0.086 ± 0.029, W -0.089 ± 0.028, S -0.152 ± 0.025, E -0.382 ± 0.03, F -0.031 ± 0.037, C -0.19 ± 0.033, N -0.157 ± 0.063, K -0.031 ± 0.031, I -0.142 ± 0.038, H -0.227 ± 0.06, D -0.792 ± 0.09, A -0.066 ± 0.024, V -0.217 ± 0.024, G -0.402 ± 0.024, T -0.277 ± 0.03
E6: Q -0.03 ± 0.029, C -0.065 ± 0.03, F 0.043 ± 0.037, T -0.009 ± 0.027, W -0.047 ± 0.025, V -0.091 ± 0.022, G -0.144 ± 0.02, N -0.014 ± 0.043, L -0.018 ± 0.022, P -0.184 ± 0.028, S -0.016 ± 0.023, M -0.061 ± 0.028, I -0.006 ± 0.033, K 0.002 ± 0.029, R -0.029 ± 0.02, H 0.039 ± 0.039, Y 0.007 ± 0.037, A -0.086 ± 0.022
P11: C -0.243 ± 0.033, A -0.137 ± 0.028, D -0.063 ± 0.048, E -0.117 ± 0.031
M7: E -0.918 ± 0.051, I 0.018 ± 0.033, A -0.213 ± 0.024, G -0.877 ± 0.031, L 0.04 ± 0.022, Q -0.937 ± 0.057, T -0.36 ± 0.03, C -0.247 ± 0.032, K -1 ± 0.073, R -0.967 ± 0.032, F -0.085 ± 0.036, V -0.034 ± 0.021, D -1.08 ± 0.085, S -0.535 ± 0.027, H -1.01 ± 0.096, N -1.07 ± 0.11, W -1.02 ± 0.047, Y -0.835 ± 0.075
R3: E -0.517 ± 0.032, N -0.299 ± 0.04, D -0.659 ± 0.045, W -0.769 ± 0.041, S -0.451 ± 0.026, I -0.099 ± 0.035, F -0.194 ± 0.033, L -0.238 ± 0.024, H -0.176 ± 0.038, C -0.985 ± 0.064, P -0.937 ± 0.056, V -0.165 ± 0.022, G -0.666 ± 0.025, Q -0.243 ± 0.032, T -0.338 ± 0.029, M -0.188 ± 0.03, K -0.036 ± 0.029, Y -0.197 ± 0.038
V5: R -0.679 ± 0.026, H -0.349 ± 0.041, A -0.219 ± 0.026, S -0.623 ± 0.031, Y -0.107 ± 0.04, E -0.192 ± 0.029, T -0.325 ± 0.032, D -0.976 ± 0.096, F -0.085 ± 0.036, G -0.997 ± 0.036, C -0.556 ± 0.038, Q -0.522 ± 0.034, L -0.154 ± 0.023, M -0.192 ± 0.031, K -0.749 ± 0.059, N -0.778 ± 0.069
K4: N -0.218 ± 0.28, L -0.068 ± 0.31, R 0.114 ± 0.17, S -0.084 ± 0.29
P2: N -0.003 ± 0.048, L -0.015 ± 0.026, V -0.049 ± 0.027, E 0.044 ± 0.032, F -0.012 ± 0.052, G 0 ± 0.027, W -0.119 ± 0.033, R -0.01 ± 0.023, Y -0.004 ± 0.05, K -0.051 ± 0.042, T 0.007 ± 0.029, H 0.023 ± 0.032, C -0.066 ± 0.044, A -0.074 ± 0.026, M 0.023 ± 0.041, D -0.083 ± 0.042, I 0.019 ± 0.048
